From patent US20220372155A1 (LYVGEN BIOPHARMA, published 2022) come the findings set out here.

Assay [1] deals with T1, human B7H4 expressed on CHO cells (human, UniProt Q7Z7D3 25-282).
T1 construct: whole, on cells; also called VCTN1
T1 sequence (looked up): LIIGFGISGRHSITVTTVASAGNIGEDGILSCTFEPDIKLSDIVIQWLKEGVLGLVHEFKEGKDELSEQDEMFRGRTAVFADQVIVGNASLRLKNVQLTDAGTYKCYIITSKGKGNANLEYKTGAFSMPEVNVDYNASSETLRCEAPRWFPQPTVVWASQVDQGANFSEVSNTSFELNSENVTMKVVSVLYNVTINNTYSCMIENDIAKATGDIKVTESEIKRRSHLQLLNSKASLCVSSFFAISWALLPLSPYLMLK
Briefly: FACS, CHO cells.

Assay [2] concerns the target T2, human CD40 expressed on CHO cells (human, UniProt P25942 21-277).
T2 construct: whole, on cells; also used for the reporter cells over-expressing human CD40; also called cellular CD40; CHO-CD40 cells
Briefly: FACS, CHO cells.

T2 sequence (P25942 21-277): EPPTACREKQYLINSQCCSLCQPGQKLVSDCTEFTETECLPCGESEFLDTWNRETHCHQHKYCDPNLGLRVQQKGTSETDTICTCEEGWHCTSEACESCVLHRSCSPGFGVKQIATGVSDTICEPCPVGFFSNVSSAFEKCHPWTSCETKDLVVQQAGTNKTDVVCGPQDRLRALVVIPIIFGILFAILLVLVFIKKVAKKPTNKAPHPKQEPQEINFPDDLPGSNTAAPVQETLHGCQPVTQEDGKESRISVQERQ

B1: Ly486 (bispecific antibody, human IgG1, kappa)
heavy: EVQLVESGGGLVKPGGSLKLSCAASGFTFSDSGMHWVRQAPEKGLEWITYINSGSSTIYYADSVKGRFTISRDNAKNTLFLQMTSLRSEDTAMYYCARGRGYAMDYWGQGTSVTVSSASTKGPSVFPLAPSSKSTSGGTAALGCLVKDYFPEPVTVSWNSGALTSGVHTFPAVLQSSGLYSLSSVVTVPSSSLGTQTYICNVNHKPSNTKVDKKVEPKSCDKTHTCPPCPAPELLGPSVFLFPPKPKDTLMISRTPEVTCVVVDVSHEDPEVKFNWYVDGVEVHNAKTKPREEQYNSTYRVVSVLTVLHQDWLNGKEYKCKVSNKALPAPIEKTISKAKGQPREPQVYTLPPSREEMTKNQVSLTCLVKGFYPSDIAVEWESNGQPENNYKTTPPVLDSDGSFFLYSKLTVDKSRWQQGNVFSCSVMHEALHNHYTQKSLSLSPGGGGGSGGGGSGGGGSGGGGSDIQMTQSPSSLSASVGDRVTITCKASQNIYIYLNWYQQKPGKAPKLLIYNTNNLQTGVPSRFSGSGSGTDFTLTISSLQPEDFATYYCLQHSSRRTFGGGTKVEIKGGGGSGGGGSGGGGSGGGGSQVQLVESGGGLVQPGGSLKLSCATSGFNFNDYFMNWVRQASGKGLEWVGQIRNKNYNYATYYTESLEGRVTISRDDSKNTAYLQMNSLKTEDTAVYYCTSYYYDGFADYFDYWGQGTTVTVSS
light: EIVLTQSPTTMAASPGEKITIFCSASSSISSDFLHWYQQKPGFSPKLLIYRISNLASGVPARFSGSGSGTSYSLTIGTMEAEDVATYYCQQGSNVPRTFGGGTKLEIKRTVAAPSVFIFPPSDEQLKSGTASVVCLLNNFYPREAKVQWKVDNALQSGNSQESVTEQDSKDSTYSLSSTLTLSKADYEKHKVYACEVTHQGLSSPVTKSFNRGEC
notes: Ly366 HC (IgG1 mutated Fc)-TM740 scFv VL-VH + Ly366 LC
As to B1, the binding result in assay [1] and in assay [2] was “binds” throughout.

B2: Ly488 (bispecific antibody, human IgG1, kappa)
heavy: EVQLVESGGGLVKPGGSLKLSCAASGFTFSDSGMHWVRQAPEKGLEWITYINSGSSTIYYADSVKGRFTISRDNAKNTLFLQMTSLRSEDTAMYYCARGRGYAMDYWGQGTSVTVSSASTKGPSVFPLAPSSKSTSGGTAALGCLVKDYFPEPVTVSWNSGALTSGVHTFPAVLQSSGLYSLSSVVTVPSSSLGTQTYICNVNHKPSNTKVDKKVEPKSCDKTHTCPPCPAPELLGPSVFLFPPKPKDTLMISRTPEVTCVVVDVSHEDPEVKFNWYVDGVEVHNAKTKPREEQYNSTYRVVSVLTVLHQDWLNGKEYKCKVSNKALPAPIEKTISKAKGQPREPQVYTLPPSREEMTKNQVSLTCLVKGFYPSDIAVEWESNGQPENNYKTTPPVLDSDGSFFLYSKLTVDKSRWQQGNVFSCSVMHEALHNHYTQKSLSLSPGK
light: EIVLTQSPTTMAASPGEKITIFCSASSSISSDFLHWYQQKPGFSPKLLIYRISNLASGVPARFSGSGSGTSYSLTIGTMEAEDVATYYCQQGSNVPRTFGGGTKLEIKRTVAAPSVFIFPPSDEQLKSGTASVVCLLNNFYPREAKVQWKVDNALQSGNSQESVTEQDSKDSTYSLSSTLTLSKADYEKHKVYACEVTHQGLSSPVTKSFNRGECGGGGSGGGGSGGGGSGGGGSDIQMTQSPSSLSASVGDRVTITCKASQNIYIYLNWYQQKPGKAPKLLIYNTNNLQTGVPSRFSGSGSGTDFTLTISSLQPEDFATYYCLQHSSRRTFGGGTKVEIKGGGGSGGGGSGGGGSGGGGSQVQLVESGGGLVQPGGSLKLSCATSGFNFNDYFMNWVRQASGKGLEWVGQIRNKNYNYATYYTESLEGRVTISRDDSKNTAYLQMNSLKTEDTAVYYCTSYYYDGFADYFDYWGQGTTVTVSS
notes: Ly366 HC (IgG1 mutated Fc) + Ly366 LC-TM740 scFv VL-VH
Turning to B2, the binding result in assay [1] and in assay [2] was “binds” each time.

B3: Ly492 (bispecific antibody, human IgG1, kappa)
heavy: EVQLVESGGGLVKPGGSLKLSCAASGFTFSDSGMHWVRQAPEKGLEWITYINSGSSTIYYADSVKGRFTISRDNAKNTLFLQMTSLRSEDTAMYYCARGRGYAMDYWGQGTSVTVSSASTKGPSVFPLAPSSKSTSGGTAALGCLVKDYFPEPVTVSWNSGALTSGVHTFPAVLQSSGLYSLSSVVTVPSSSLGTQTYICNVNHKPSNTKVDKKVEPKSCDKTHTCPPCPAPELLGPSVFLFPPKPKDTLMISRTPEVTCVVVDVSHEDPEVKFNWYVDGVEVHNAKTKPREEQYNSTYRVVSVLTVLHQDWLNGKEYKCKVSNKALPAPIEKTISKAKGQPREPQVYTLPPSREEMTKNQVSLTCLVKGFYPSDIAVEWESNGQPENNYKTTPPVLDSDGSFFLYSKLTVDKSRWQQGNVFSCSVMHEALHNHYTQKSLSLSPGK
light: EIVLTQSPTTMAASPGEKITIFCSASSSISSDFLHWYQQKPGFSPKLLIYRISNLASGVPARFSGSGSGTSYSLTIGTMEAEDVATYYCQQGSNVPRTFGGGTKLEIKRTVAAPSVFIFPPSDEQLKSGTASVVCLLNNFYPREAKVQWKVDNALQSGNSQESVTEQDSKDSTYSLSSTLTLSKADYEKHKVYACEVTHQGLSSPVTKSFNRGECGGGGSGGGGSGGGGSGGGGSDIQMTQSPSSLSASVGDRVTITCLASEDISNDLAWYQQKPGKAPKLLIYFVDRLLDGVPSRFSGSGSGTDFTLTISSLQPEDFATYYCQQSYKYPPTFGQGTKLEIKGGGGSGGGGSGGGGSGGGGSEVQLVESGGGLVQPGGSLRLSCAASGFTFTNYGLHWVRQAPGKGLEWVSSISPSGGVTYYRDSVKGRFTISRDNSKNTLYLQMNSLRAEDTAVYYCAKPFLGWGGANWIAHWGQGTLVTVSS
notes: Ly366 HC (IgG1 mutated Fc) + Ly366 LC-TM559 scFv VL-VH
In the case of B3, the binding result in assay [1] and in assay [2] was “binds” throughout.

B4: Ly489 (bispecific antibody, human IgG1, kappa)
heavy: EVQLVESGGGLVKPGGSLKLSCAASGFTFSDSGMHWVRQAPEKGLEWITYINSGSSTIYYADSVKGRFTISRDNAKNTLFLQMTSLRSEDTAMYYCARGRGYAMDYWGQGTSVTVSSASTKGPSVFPLAPSSKSTSGGTAALGCLVKDYFPEPVTVSWNSGALTSGVHTFPAVLQSSGLYSLSSVVTVPSSSLGTQTYICNVNHKPSNTKVDKKVEPKSCDKTHTCPPCPAPELLGPSVFLFPPKPKDTLMISRTPEVTCVVVDVSHEDPEVKFNWYVDGVEVHNAKTKPREEQYNSTYRVVSVLTVLHQDWLNGKEYKCKVSNKALPAPIEKTISKAKGQPREPQVYTLPPSREEMTKNQVSLTCLVKGFYPSDIAVEWESNGQPENNYKTTPPVLDSDGSFFLYSKLTVDKSRWQQGNVFSCSVMHEALHNHYTQKSLSLSPGK
light: EIVLTQSPTTMAASPGEKITIFCSASSSISSDFLHWYQQKPGFSPKLLIYRISNLASGVPARFSGSGSGTSYSLTIGTMEAEDVATYYCQQGSNVPRTFGGGTKLEIKRTVAAPSVFIFPPSDEQLKSGTASVVCLLNNFYPREAKVQWKVDNALQSGNSQESVTEQDSKDSTYSLSSTLTLSKADYEKHKVYACEVTHQGLSSPVTKSFNRGECGGGGSGGGGSGGGGSGGGGSQVQLVESGGGLVQPGGSLKLSCATSGFNFNDYFMNWVRQASGKGLEWVGQIRNKNYNYATYYTESLEGRVTISRDDSKNTAYLQMNSLKTEDTAVYYCTSYYYDGFADYFDYWGQGTTVTVSSGGGGSGGGGSGGGGSGGGGSDIQMTQSPSSLSASVGDRVTITCKASQNIYIYLNWYQQKPGKAPKLLIYNTNNLQTGVPSRFSGSGSGTDFTLTISSLQPEDFATYYCLQHSSRRTFGGGTKVEIK
notes: Ly366 HC (IgG1 mutated Fc) + Ly366 LC-TM740 scFv VH-VL
As to B4, the binding result in assay [1] and in assay [2] was “binds” in each case.

B5: Ly496 (bispecific antibody, human IgG1, kappa)
heavy: EVQLVESGGGLVKPGGSLKLSCAASGFTFSDSGMHWVRQAPEKGLEWITYINSGSSTIYYADSVKGRFTISRDNAKNTLFLQMTSLRSEDTAMYYCARGRGYAMDYWGQGTSVTVSSASTKGPSVFPLAPSSKSTSGGTAALGCLVKDYFPEPVTVSWNSGALTSGVHTFPAVLQSSGLYSLSSVVTVPSSSLGTQTYICNVNHKPSNTKVDKKVEPKSCDKTHTCPPCPAPELLGPSVFLFPPKPKDTLMISRTPEVTCVVVDVSHEDPEVKFNWYVDGVEVHNAKTKPREEQYNSTYRVVSVLTVLHQDWLNGKEYKCKVSNKALPAPIEKTISKAKGQPREPQVYTLPPSREEMTKNQVSLTCLVKGFYPSDIAVEWESNGQPENNYKTTPPVLDSDGSFFLYSKLTVDKSRWQQGNVFSCSVMHEALHNHYTQKSLSLSPGK
light: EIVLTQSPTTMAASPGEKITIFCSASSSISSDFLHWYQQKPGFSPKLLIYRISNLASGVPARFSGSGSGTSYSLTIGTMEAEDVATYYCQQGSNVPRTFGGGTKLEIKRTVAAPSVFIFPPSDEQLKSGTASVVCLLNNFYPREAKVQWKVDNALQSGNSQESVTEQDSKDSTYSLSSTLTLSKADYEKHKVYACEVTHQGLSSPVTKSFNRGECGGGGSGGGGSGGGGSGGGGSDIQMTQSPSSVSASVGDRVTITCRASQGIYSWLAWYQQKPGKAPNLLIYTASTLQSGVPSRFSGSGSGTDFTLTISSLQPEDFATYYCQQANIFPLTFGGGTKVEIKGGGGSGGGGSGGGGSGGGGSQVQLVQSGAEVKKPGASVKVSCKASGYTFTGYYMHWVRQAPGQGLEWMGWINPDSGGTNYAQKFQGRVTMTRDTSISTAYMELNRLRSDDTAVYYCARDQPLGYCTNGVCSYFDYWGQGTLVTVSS
notes: Ly366 HC (IgG1 mutated Fc) + Ly366 LC-Ly253 scFv VL-VH
For B5, the binding result in assay [1] and in assay [2] was “binds” in each case.

B6: Ly493 (bispecific antibody, human IgG1, kappa)
heavy: EVQLVESGGGLVKPGGSLKLSCAASGFTFSDSGMHWVRQAPEKGLEWITYINSGSSTIYYADSVKGRFTISRDNAKNTLFLQMTSLRSEDTAMYYCARGRGYAMDYWGQGTSVTVSSASTKGPSVFPLAPSSKSTSGGTAALGCLVKDYFPEPVTVSWNSGALTSGVHTFPAVLQSSGLYSLSSVVTVPSSSLGTQTYICNVNHKPSNTKVDKKVEPKSCDKTHTCPPCPAPELLGPSVFLFPPKPKDTLMISRTPEVTCVVVDVSHEDPEVKFNWYVDGVEVHNAKTKPREEQYNSTYRVVSVLTVLHQDWLNGKEYKCKVSNKALPAPIEKTISKAKGQPREPQVYTLPPSREEMTKNQVSLTCLVKGFYPSDIAVEWESNGQPENNYKTTPPVLDSDGSFFLYSKLTVDKSRWQQGNVFSCSVMHEALHNHYTQKSLSLSPGK
light: EIVLTQSPTTMAASPGEKITIFCSASSSISSDFLHWYQQKPGFSPKLLIYRISNLASGVPARFSGSGSGTSYSLTIGTMEAEDVATYYCQQGSNVPRTFGGGTKLEIKRTVAAPSVFIFPPSDEQLKSGTASVVCLLNNFYPREAKVQWKVDNALQSGNSQESVTEQDSKDSTYSLSSTLTLSKADYEKHKVYACEVTHQGLSSPVTKSFNRGECGGGGSGGGGSGGGGSGGGGSEVQLVESGGGLVQPGGSLRLSCAASGFTFTNYGLHWVRQAPGKGLEWVSSISPSGGVTYYRDSVKGRFTISRDNSKNTLYLQMNSLRAEDTAVYYCAKPFLGWGGANWIAHWGQGTLVTVSSGGGGSGGGGSGGGGSGGGGSDIQMTQSPSSLSASVGDRVTITCLASEDISNDLAWYQQKPGKAPKLLIYFVDRLLDGVPSRFSGSGSGTDFTLTISSLQPEDFATYYCQQSYKYPPTFGQGTKLEIK
notes: Ly366 HC (IgG1 mutated Fc) + Ly366 LC-TM559 scFv VH-VL
Take B6: the binding result in assay [1] and in assay [2] was “binds” each time.

B7: Ly366 (chimeric) (antibody, human IgG1, kappa, V domains shown)
VH: EVQLVESGGGLVKPGGSLKLSCAASGFTFSDSGMHWVRQAPEKGLEWITYINSGSSTIYYADSVKGRFTISRDNAKNTLFLQMTSLRSEDTAMYYCARGRGYAMDYWGQGTSVTVSS
VL: EIVLTQSPTTMAASPGEKITIFCSASSSISSDFLHWYQQKPGFSPKLLIYRISNLASGVPARFSGSGSGTSYSLTIGTMEAEDVATYYCQQGSNVPRTFGGGTKLEIKR
notes: chimeric, human IgG1 constant region; also called hybridoma 25F3
Consider B7, for which the binding result in assay [1] was “binds”.
